In paper PMC9331509, “Insights into Domain Organization and Regulatory Mechanism of Cystathionine Beta-Synthase from Toxoplasma gondii” (International Journal of Molecular Sciences, 2022):
Where “and” joins values, the source holds several entries; their conditions need not be identical. Equal values may be shown once. Marks after values point to notes of the source that are not given here.

What was measured:
[1] = target: Proteolysed full-length TgCBS (39 kDa trypsin-resistant core) (Toxoplasma gondii); assay: SEC; 250 ug TgCBS incubated with trypsin 1:200 (w/w) for 120 min, stopped with a two-fold weight excess of soybean trypsin inhibitor, loaded on Superdex 200 10/300 GL; TgCBS R353* at 0.5 mg/mL run for comparison
TgCBS R353* = target: T1, TgCBS R353* (Toxoplasma gondii, UniProt A0A125YSJ9); assay: UV-Vis absorption ([…] nm internal aldimine); PLP content by NaOH, […] nm; type: binding; conditions: stoichiometry; covalent internal aldimine, as purified
T1 construct: gene TGME49_259180; C-terminally truncated (stop codon at R353; residues 353-514, Bateman module, removed), residues 1-352; N-terminal 6xHis tag; pET21a, E. coli Rosetta (DE3); 39 kDa; mainly dimer

full-length TgCBS = target: T2, full-length TgCBS (Toxoplasma gondii, UniProt A0A125YSJ9); assay: continuous CBL-LDH coupled assay; type: biochemical; conditions: saturating L-Ser and L-Hcys; pH 9, 37 °C; activity after heat pre-treatment or trypsinolysis
T2 construct: gene TGME49_259180; full-length, residues 1-514; N-terminal 6xHis tag; E. coli Rosetta (DE3); ~57 kDa subunit; mainly dimer
T2 sequence (A0A125YSJ9 1-514): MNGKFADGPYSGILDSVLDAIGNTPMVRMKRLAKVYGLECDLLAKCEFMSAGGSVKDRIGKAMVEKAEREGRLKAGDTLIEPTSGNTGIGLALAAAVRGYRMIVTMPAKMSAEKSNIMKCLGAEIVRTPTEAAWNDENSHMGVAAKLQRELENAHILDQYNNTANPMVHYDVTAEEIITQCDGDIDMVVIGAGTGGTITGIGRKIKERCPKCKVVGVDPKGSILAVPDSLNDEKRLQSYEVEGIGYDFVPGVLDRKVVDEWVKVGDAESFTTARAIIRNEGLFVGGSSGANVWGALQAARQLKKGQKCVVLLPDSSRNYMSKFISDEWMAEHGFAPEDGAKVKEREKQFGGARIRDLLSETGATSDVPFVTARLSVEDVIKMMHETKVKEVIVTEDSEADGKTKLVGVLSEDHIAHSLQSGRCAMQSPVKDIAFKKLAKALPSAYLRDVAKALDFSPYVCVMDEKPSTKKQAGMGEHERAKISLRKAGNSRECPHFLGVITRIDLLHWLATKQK

[2] = target: the molecule itself; assay: native gel or EMSA; native PAGE at 8, 9, 10 and 12% polyacrylamide, 10 ug/lane, Coomassie staining, Ferguson plot analysis with molecular mass standards
[3] = target: the molecule itself; assay: SEC; Superdex 200 10/300 GL, protein at 1 mg/mL, 20 mM sodium phosphate buffer pH 8.5, 150 mM NaCl, 0.1 mM DTT; calibrated with standard proteins

**Q.** For “Proteolysed full-length TgCBS (39 kDa trypsin-resistant core) (from UniProt A0A125YSJ9 1-514) (domain or fragment)”, which stoichiometry N [1] is on record?
**A.** 2

**Q.** For Cc1ncc(COP(=O)(O)O)c(C=O)c1O [PLP], which PLP per monomer (TgCBS R353*) is on record?
**A.** 0.9 ± 0.1 mol/mol

**Q.** Which “continuous CBL-LDH coupled assay” value (full-length TgCBS) does the source give for N[C@@H](CCS)C(=O)O [L-Hcys] here?
**A.** at saturating concentration of L-Ser and L-Hcys in the canonical reaction

**Q.** For N[C@@H](CO)C(=O)O [L-Ser], which “continuous CBL-LDH coupled assay” value (full-length TgCBS) is on record?
**A.** full-length TgCBS (solid triangles) and TgCBS R353* (open circles) on their steady-state initial velocity

B1: TgCBS R353* (TgCBS lacking the C-terminal Bateman module) (domain or fragment, Toxoplasma gondii, UniProt A0A125YSJ9 1-352, looked up)
chain: MNGKFADGPYSGILDSVLDAIGNTPMVRMKRLAKVYGLECDLLAKCEFMSAGGSVKDRIGKAMVEKAEREGRLKAGDTLIEPTSGNTGIGLALAAAVRGYRMIVTMPAKMSAEKSNIMKCLGAEIVRTPTEAAWNDENSHMGVAAKLQRELENAHILDQYNNTANPMVHYDVTAEEIITQCDGDIDMVVIGAGTGGTITGIGRKIKERCPKCKVVGVDPKGSILAVPDSLNDEKRLQSYEVEGIGYDFVPGVLDRKVVDEWVKVGDAESFTTARAIIRNEGLFVGGSSGANVWGALQAARQLKKGQKCVVLLPDSSRNYMSKFISDEWMAEHGFAPEDGAKVKEREKQFGGA
notes: Cystathionine beta-synthase (TgCBS), Toxoplasma gondii, residues 1-352 (catalytic domain and interdomain linker); 39 kDa subunit; made by site-directed mutagenesis on pET21a-TgCBS; also called C-terminally truncated TgCBS; truncated TgCBS; source: E. coli Rosetta (DE3), purified (Ni-sepharose, as the wild-type enzyme); not shown: His6, N-terminal, kept
**Q.** What does the source list for B1?
**A.** stoichiometry N [2]: ~4 and ~2; stoichiometry N [3]: 2 and 4

B2: Full-length cystathionine beta-synthase from Toxoplasma gondii (enzyme, UniProt A0A125YSJ9 1-514, looked up)
chain: T2 sequence (A0A125YSJ9 1-514)
notes: the cited crystal structure PDB 6XWL is of a construct lacking an internal loop (TgCBS Δ466-491); PLP-dependent enzyme; also called TgCBS; full-length TgCBS; source: E. coli Rosetta (DE3), purified (Ni-sepharose); not shown: His6, N-terminal, kept
**Q.** B2 was tested. Which “stoichiometry N” value [3] did it give?
**A.** 2 and 4
